Laboratory results: paper PMC5166503 (The Journal of Cell Biology, 2016)
Read-outs that look alike come from different tables or passages of the source.

Columns and labels:
[1] = target: EGFP-CaMzt1 (C. albicans); assay: MST
[2] = target: Candida albicans γ-tubulin small complex (Caγ-TuSC) (C. albicans) (UniProt Q59PZ2); assay: SEC
[3] = target: Candida albicans γ-tubulin small complex (Caγ-TuSC) (C. albicans) (UniProt Q59PZ2); assay: SEC; remark: listed apart in the source
[4] = target: MOZART1-EGFP (purified) (human) (UniProt Q08AG7); assay: MST
[5] = target: Caγ-TuSC–CaMzt1 complex (preassembled, co-expressed) (C. albicans) (UniProt Q59PZ2); assay: MST
[6] = target: CaMzt1-EGFP (C. albicans); assay: MST
[7] = target: EGFP-CaMzt1^D22A (C. albicans); assay: MST
[8] = target: Saccharomyces cerevisiae γ-tubulin small complex (Scγ-TuSC) (S. cerevisiae) (UniProt P38863); assay: SEC
GST–CaSpc72-N (1–420) = target: T1, GST–CaSpc72-N (1–420) (C. albicans, UniProt Q5AGV5 1-420); assay: SEC
T1 sequence (looked up): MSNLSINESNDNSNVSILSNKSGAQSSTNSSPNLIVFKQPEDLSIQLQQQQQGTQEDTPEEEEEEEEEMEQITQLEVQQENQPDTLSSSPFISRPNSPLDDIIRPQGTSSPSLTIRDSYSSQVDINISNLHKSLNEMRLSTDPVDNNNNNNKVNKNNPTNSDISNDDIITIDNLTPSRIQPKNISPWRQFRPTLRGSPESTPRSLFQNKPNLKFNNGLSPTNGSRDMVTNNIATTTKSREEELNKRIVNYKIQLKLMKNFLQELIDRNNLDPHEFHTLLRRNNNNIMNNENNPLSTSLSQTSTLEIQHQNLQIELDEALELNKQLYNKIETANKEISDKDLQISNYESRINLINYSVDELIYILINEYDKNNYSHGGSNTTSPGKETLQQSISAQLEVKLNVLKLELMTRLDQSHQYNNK

SEC = target: the molecule itself; assay: SEC
[9] = target: Candida albicans γ-tubulin small complex (Caγ-TuSC) (C. albicans, UniProt Q59PZ2 1-871; A0A1D8PS42 1-785; O93807 1-502); assay: co-purification after co-expression

Sequence of MOZART1-EGFP (purified) (human) (Q08AG7 whole entry): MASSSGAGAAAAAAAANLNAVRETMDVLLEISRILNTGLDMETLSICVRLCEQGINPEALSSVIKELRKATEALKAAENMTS

CaSpc110^CM1 fragment (117–176 aa) (domain or fragment)
Kd [1]: 1420 nM

Candida albicans γ-tubulin small complex (Caγ-TuSC), Q59PZ2 1-871; A0A1D8PS42 1-785; O93807 1-502
percent oligomeric [2]: 5% | percent oligomeric [3]: 30%

GST–CaSpc110-N (1–222) (domain or fragment)
Kd [1]: 187 nM | Kd [4]: 489 nM | fold higher affinity than to Caγ-TuSC [5]: 3 fold | fold lower affinity than with EGFP-CaMzt1 [6]: 3 fold | fold reduction of affinity against EGFP-CaMzt1 [7]: 6 fold

Saccharomyces cerevisiae γ-tubulin small complex (Scγ-TuSC), P38863 1-823; P53540 1-846; P53378 1-473
percent oligomeric [8]: > 90%

B1: EGFP-CaMzt1 (natural protein, C. albicans, UniProt A0A1D8PMH7 1-58, looked up)
chain: MPPDPNSMIVELARLMNCVQLDETVLQLCIKLLDEGANPQQLAKHILAIKKETNSILT
binding result (GST–CaSpc72-N (1–420)): binds | stoichiometry N (SEC): 3 to 4

B2: CaMzt1-3Flag (natural protein, C. albicans, UniProt A0A1D8PMH7 1-58, looked up)
chain: B1 chain
stoichiometry N [9]: 1

B3: GST-CaMzt1 (natural protein, C. albicans, UniProt A0A1D8PMH7 1-58, looked up)
chain: B1 chain
stoichiometry N (SEC): 3 to 4
